{"source": "patent US20220204610A1", "about": "“PROTEIN BINDERS FOR IRHOM2” (NEW YORK SOCIETY FOR THE RELIEF OF THE RUPTURED AND …, priority 2019, published 2022)", "molecules": {"B1": {"name": "4H8-E3: Mouse IgM monoclonal antibody against the human iRhom2 juxtamembrane domain adjacent to TMD1; HC VD SEQ ID NO 33, LC VD SEQ ID NO 40 (antibody, V domains shown)", "VH": "EVQLQQSGPELVKPGASVKISCKASGYTFTDYYMNWVKQSHGKSLEWIGDINPNNGGTSYNQKFKGKATLTVDKSSNTAYMEFRSLTSEDSAVYYCARRGYYGVDYWGQGTTLTVSS", "VL": "NIVMTQSPKSMSMSVGERVTLNCKASENVGTYVSWYQQKPEQSPKLLIFGASNRYTGVPDRFIGSGFATDFTLTISSVQAEDLADYHCGQSYSYPYTFGGGTKLEIK", "modifications": "IgM constant regions; antibody sequence"}}, "tested_on": "LPS-induced release of endogenous TNFα from human THP-1 macrophage cells", "assay": "TNFα release (shedding) assay, functional screen of hybridoma supernatants", "format": "cell-based", "details": "supernatants of monoclonal 4H8 sub-clones; assay as in Example 5", "text": "After 14 days of culture, supernatants of hybridoma cells were collected and—instead of being selected for iRhom2 binding antibodies—were subjected to an ELISA-based functional screen for iRhom2 activity-neutralizing antibodies. Since the crucial role of iRhom2 in TACE-mediated release of tumor necrosis factor alpha (TNFα) from macrophages is very well established (McIlwein et al., 2012, Adrain et al., 2012, Siggs et al., 2012), the human TNF-alpha DuoSet ELISA (R&D Systems, USA) was employed to compare the lipopolysaccharide (LPS)-induced release of endogenous TNFα from human THP-1 macrophage cells in the presence and absence of all 5280 peptide immunization-derived hybridoma supernatants.\nIn brief, on day 1, Nunc black MaxiSorp® 96-well plates (Thermo Fisher Scientific, USA) were coated overnight with 100 μl per well of mouse anti-human TNFα capture antibody (provided as part of the DuoSet ELISA kit) at 4 μg/m1 TBS at 4° C. […] Using an infinite M1000 PRO (Tecan Group, Switzerland) microplate reader, the fluorescence of each well was collected at an excitation wavelength of 435 nm and an emission wavelength of 555 nm.\nIn brief, cells of the hybridoma population 4H8 were counted and the dilution factor to end up with an average of two cells per well of 96-well plates was calculated. […]"}
{"molecule": "B1", "values": [{"measurement": "inhibitory effect of sub-clone supernatants on LPS-induced release of TNFα from THP-1 cells", "value": "significantly interfere"}]}
